{
  "source": "patent US20230107034A1",
  "about": "(BRIGHAM AND WOMEN S HOSPITAL, published 2023)",
  "key": {"[1]": {"target": "soluble synaptotoxic Aβ in aqueous human AD brain extract (human, UniProt P05067 18-701)", "sequence (P05067 18-701)": "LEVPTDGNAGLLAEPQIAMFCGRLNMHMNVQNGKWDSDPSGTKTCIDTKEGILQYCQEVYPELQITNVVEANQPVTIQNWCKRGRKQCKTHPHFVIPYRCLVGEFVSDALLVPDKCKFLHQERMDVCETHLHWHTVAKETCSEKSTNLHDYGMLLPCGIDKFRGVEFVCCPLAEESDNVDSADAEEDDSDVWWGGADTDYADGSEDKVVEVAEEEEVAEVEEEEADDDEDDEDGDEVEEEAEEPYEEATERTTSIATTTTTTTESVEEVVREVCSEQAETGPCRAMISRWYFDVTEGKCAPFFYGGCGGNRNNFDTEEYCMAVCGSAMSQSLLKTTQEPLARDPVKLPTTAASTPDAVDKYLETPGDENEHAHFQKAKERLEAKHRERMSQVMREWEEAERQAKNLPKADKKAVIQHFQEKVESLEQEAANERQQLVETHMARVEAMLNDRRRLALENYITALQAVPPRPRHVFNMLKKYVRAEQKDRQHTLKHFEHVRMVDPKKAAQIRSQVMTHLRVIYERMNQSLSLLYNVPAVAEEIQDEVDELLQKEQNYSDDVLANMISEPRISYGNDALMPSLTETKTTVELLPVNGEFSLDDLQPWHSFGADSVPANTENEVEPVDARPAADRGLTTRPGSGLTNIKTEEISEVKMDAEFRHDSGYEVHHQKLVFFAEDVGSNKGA", "assay": "cell-based or functional assay"}, "[2]": {"target": "T1, monomeric Aβ (UniProt P05067 672-713)", "T1 construct": "also called Aβ monomer; Aβ1-40 monomer and/or Aβ1-42 monomer", "T1 sequence (P05067 672-713)": "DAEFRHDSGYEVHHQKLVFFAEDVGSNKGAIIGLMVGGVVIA", "assay": "binding profile column of Table 5"}, "[3]": {"target": "T2, synthetic Aβ protofibrils (Aβ1-42-derived protofibrils) (UniProt P05067 672-713)", "T2 construct": "domain: Aβ1-42; Multimeric assembly; also called PF; PFs", "T2 sequence (P05067 672-713 limits assumed)": "as the sequence (P05067 672-713) above", "assay": "binding profile column of Table 5"}, "[4]": {"target": "T3, synthetic Aβ-derived diffusible ligands (ADDLs) (UniProt P05067 672-713)", "T3 construct": "domain: Aβ1-42; Oligomeric assembly; also called synthetic Aβ oligomers", "T3 sequence (P05067 672-713 limits assumed)": "as the sequence (P05067 672-713) above", "assay": "binding profile column of Table 5"}},
  "note": "“And” between values parts separate entries of the source, which are not always exact repeats. Equal values may be shown once.",
  "data": [
    {"binder": "rB73 (recombinant B73, human IgG1 LALA) (antibody, V domains shown) VH: QLQLQMSGPGLVKPSETLSLTCTVSGGSISSSSYYWGWIRQSPGKGLEWIGSIYYSGRTYYNPSLKSRVTISVDTSKNQFSLKLSSVTAADTAMYYCARRSSGRPYYWGQGTLVTVSS VL: QAVVTQESALTTSPGGTVILTCRSSTGAVTTSNYANWVQEKPDHLFTGLIGETNNRAPGVPVRFSGSLIGDKAALTITGAQTEDDAMYFCALWYSTHWVFGGGTKLTVLG", "values": [
      {"measurement": "EC50 of neuritotoxicity protection, iN cellular assay, Mean", "setting": "[1]", "result": 1.94, "unit": "µg/mL"},
      {"measurement": "EC50 of neuritotoxicity protection, iN cellular assay, Run10", "setting": "[1]", "result": 1.98, "unit": "µg/mL"},
      {"measurement": "EC50 of neuritotoxicity protection, iN cellular assay, Run11", "setting": "[1]", "result": 1.97, "unit": "µg/mL"},
      {"measurement": "EC50 of neuritotoxicity protection, iN cellular assay, Run12", "setting": "[1]", "result": 1.49, "unit": "µg/mL"},
      {"measurement": "EC50 of neuritotoxicity protection, iN cellular assay, Run14", "setting": "[1]", "result": 2.32, "unit": "µg/mL"}
    ]},
    {"binder": "B75 (hybridoma-purified mAb) (antibody, V domains shown) VH: QVQLVESGGGVVQPGRSLRLSCAASGFTFSSYGMHWVRQAPGKGLEWVAVIWYDGSYKYYADSVKGRFTISRDNSKNTLYLQMNSLRVEDTAVYYCAREGRTYYDFLTGYFDFWGQGTLVTVSS VL: not shown", "values": [
      {"measurement": "EC50 of neuritotoxicity protection, iN cellular assay, Mean", "setting": "[1]", "result": 2.05, "unit": "µg/mL"},
      {"measurement": "EC50 of neuritotoxicity protection, iN cellular assay, Run13", "setting": "[1]", "result": 2.05, "unit": "µg/mL"}
    ]},
    {"binder": "rB75 (recombinant B75, human IgG1 LALA) (antibody, V domains shown) VH: QVQLVESGGGVVQPGRSLRLSCAASGFTFSSYGMHWVRQAPGKGLEWVAVIWYDGSYKYYADSVKGRFTISRDNSKNTLYLQMNSLRVEDTAVYYCAREGRTYYDFLTGYFDFWGQGTLVTVSS VL: not shown", "values": [
      {"measurement": "EC50 of neuritotoxicity protection, iN cellular assay, Mean", "setting": "[1]", "result": 4.08, "unit": "µg/mL"},
      {"measurement": "EC50 of neuritotoxicity protection, iN cellular assay, Run15", "setting": "[1]", "result": 2.11, "unit": "µg/mL"},
      {"measurement": "EC50 of neuritotoxicity protection, iN cellular assay, Run16", "setting": "[1]", "result": 6.04, "unit": "µg/mL"}
    ]},
    {"binder": "rB28 (recombinant B28, human IgG1 LALA) (antibody, V domains shown) VH: QVQLVESGGGVVQPGRSVRLSCAATGFTFSSYGMHWVRQAPGKGLEWVAVIWFDGSNEYYADSVRGRFTISRDNSKNTLYLQMNSLRAEDTAVYYCARRGRVGVTRNYYYYNMDVWGQGTTVTVSS VL: AIQMTQSPSSLSASVGDRVTITCRASQGIRNDLGWFQQKPGKAPKLLIYPASSLQSGVPSRFSGSGSDTDFTLTISSLQPEDFATYYCLQDYNFPFTFGPGTKVDIKR", "values": [
      {"measurement": "EC50 of neuritotoxicity protection, iN cellular assay, Mean", "setting": "[1]", "result": 1.53, "unit": "µg/mL"},
      {"measurement": "EC50 of neuritotoxicity protection, iN cellular assay, Run11", "setting": "[1]", "result": 1.76, "unit": "µg/mL"},
      {"measurement": "EC50 of neuritotoxicity protection, iN cellular assay, Run12", "setting": "[1]", "result": 1.34, "unit": "µg/mL"},
      {"measurement": "EC50 of neuritotoxicity protection, iN cellular assay, Run13", "setting": "[1]", "result": 1.5, "unit": "µg/mL"}
    ]},
    {"binder": "rC11 (recombinant C11, human IgG1 LALA) (antibody, V domains shown) VH: QVQLQESGPGLVKPSETLSLTCTVSGGSISSYYWSWIRQPPGKGLEWIGSIYYSGTTKYNPSLKSRVTISVGTSKNQFSLKLNSVTAADTAVYYCARDNWGSRFDYWGQGTLVTVSS VL: DIQMTQSPSSLSASVGDRVTITCRASQGIRNDLGWYQQKPGKAPTLLIYAASSLQSGVPSRFSGSGSGTDFTLTISSLQPEDFATYYCLQDFNYPYTFGQGTKLEIKR", "values": [
      {"measurement": "EC50 of neuritotoxicity protection, iN cellular assay, Mean", "setting": "[1]", "result": 2.79, "unit": "µg/mL"},
      {"measurement": "EC50 of neuritotoxicity protection, iN cellular assay, Run16", "setting": "[1]", "result": "3.58 µg/mL and 2.19 µg/mL"},
      {"measurement": "EC50 of neuritotoxicity protection, iN cellular assay, Run17", "setting": "[1]", "result": 2.58, "unit": "µg/mL"}
    ]},
    {"binder": "C11 (hybridoma-purified mAb) (antibody, V domains shown, Purified from a Trianni mouse hybridoma (FusC); also called purified clone C11) VH: QVQLQESGPGLVKPSETLSLTCTVSGGSISSYYWSWIRQPPGKGLEWIGSIYYSGTTKYNPSLKSRVTISVGTSKNQFSLKLNSVTAADTAVYYCARDNWGSRFDYWGQGTLVTVSS VL: DIQMTQSPSSLSASVGDRVTITCRASQGIRNDLGWYQQKPGKAPTLLIYAASSLQSGVPSRFSGSGSGTDFTLTISSLQPEDFATYYCLQDFNYPYTFGQGTKLEIK", "values": [
      {"measurement": "binding result", "setting": "[2]", "result": "no binding"},
      {"measurement": "binding result", "setting": "[3]", "result": "no binding"},
      {"measurement": "binding result", "setting": "[4]", "result": "no binding"}
    ]},
    {"binder": "C10 (hybridoma-purified mAb) (antibody, V domains shown, also called purified clone C10) VH: QVQLQESGPGLVKPSETLSLTCTVSGGSISSYYWSWIRQPPGKGLEWIGSIYYSGTTKYNPSLKSRVTISVGTSKNQFSLKLNSVTAADTAVYYCARDNWGSRFDYWGQGTLVTVSS VL: DIQMTQSPSSLSASVGDRVTITCRASQGIRNDLGWYQQKPGKAPTLLIYAASSLQSGVPSRFSGSGSGTDFTLTISSLQPEDFATYYCLQDFNYPYTFGQGTKLEIK", "values": [
      {"measurement": "binding result", "setting": "[2]", "result": "no binding"},
      {"measurement": "binding result", "setting": "[3]", "result": "no binding"},
      {"measurement": "binding result", "setting": "[4]", "result": "no binding"}
    ]},
    {"binder": "rB24 (recombinant B24, human IgG1 LALA) (antibody, V domains shown) VH: EVQLLESGGGLVQPGGSLRLSCAASGFTFSSYAMTWVRQAPGEGLEWVSTISGSGIRTYYADSVKGRFTISRDNSKNTMYLQMNSLRAEDTAVYYCAKDGLTGDRRWYFDLWGRGTLVTVSS VL: EIVMTQSPATLSLSPGERATLSCRASQSVSSSYFSWYQQKPGQAPRLLIYGASTRATGIPARFSGSGSGTDFTLTISSLQPEDFAVYYCQQDSNLPLTFGGGTKVEIKR", "values": [
      {"measurement": "EC50 of neuritotoxicity protection, iN cellular assay, Mean", "setting": "[1]", "result": 3.97, "unit": "µg/mL"},
      {"measurement": "EC50 of neuritotoxicity protection, iN cellular assay, Run15", "setting": "[1]", "result": 2.53, "unit": "µg/mL"},
      {"measurement": "EC50 of neuritotoxicity protection, iN cellular assay, Run17", "setting": "[1]", "result": 5.4, "unit": "µg/mL"}
    ]}
  ]
}
